B1: recombinant GST-p300 HAT (protein)
chain: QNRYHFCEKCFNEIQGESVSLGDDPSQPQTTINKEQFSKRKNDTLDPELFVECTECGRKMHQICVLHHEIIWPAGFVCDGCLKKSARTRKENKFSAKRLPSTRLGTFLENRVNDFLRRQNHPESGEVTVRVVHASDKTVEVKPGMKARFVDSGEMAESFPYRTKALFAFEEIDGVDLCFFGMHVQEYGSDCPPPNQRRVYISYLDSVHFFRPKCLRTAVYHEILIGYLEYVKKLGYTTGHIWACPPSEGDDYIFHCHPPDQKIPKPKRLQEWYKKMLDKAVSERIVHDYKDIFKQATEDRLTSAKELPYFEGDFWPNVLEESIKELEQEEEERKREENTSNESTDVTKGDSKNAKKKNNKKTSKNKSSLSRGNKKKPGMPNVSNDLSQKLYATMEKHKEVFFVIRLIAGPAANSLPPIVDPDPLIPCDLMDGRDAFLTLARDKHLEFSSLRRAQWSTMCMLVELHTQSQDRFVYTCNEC
B2: recombinant Set9 (Upstate) (protein)
chain: MDSDDEMVEEAVEGHLDDDGLPHGFCTVTYSSTDRFEGNFVHGEKNGRGKFFFFDGSTLEGYYVDDALQGQGVYTYEDGGVLQGTYVDGELNGPAQEYDTDGRLIFKGQYKDNIRHGVCWIYYPDGGSLVGEVNEDGEMTGEKIAYVYPDERTALYGKFIDGEMIEGKLATLMSTEEGRPHFELMPGNSVYHFDKSTSSCISTNALLPDPYESERVYVAESLISSAGEGLFSKVAVGPNTVMSFYNGVRITHQEVDSRDWALNGNTLSLDEETVIDVPEPYNHVSKYCASLGHKANHSFTPNCIYDMFVHPRFGPIKCIRTLRAVEADEELTVAYGYDHSPPGKSGPEAPEWYQVELKAFQATQQK

Key:
[1] = biological target: T1, Tat ARM peptide (amino acids 45-58) monomethylated at K51
T1 chain: ISYGRKKRRQRRRP

[2] = biological target: T2, unmodified Tat ARM peptide (amino acids 45-58)
T2 chain: ISYGRKKRRQRRRP

[3] = biological target: T3, Tat ARM peptide (amino acids 45-58) K50, 51AA
T3 chain: ISYGRAARRQRRRP

[4] = biological target: T4, Tat ARM peptide (amino acids 45-58) K51A
T4 chain: ISYGRKARRQRRRP

[5] = biological target: T5, Tat ARM peptide (amino acids 45-58) K50A
T5 chain: ISYGRAKRRQRRRP

[6] = biological target: histones purified from calf thymus
[7] = biological target: full-length synthetic Tat protein (72 amino acids), unmodified
[8] = biological target: T6, Tat ARM peptide carrying an acetyl group at position 50
T6 chain: ISYGRKKRRQRRRP

Row | Protein | in vitro acetylation with 14C-AcCoA, autoradiography [1] | in vitro acetylation with 14C-AcCoA, autoradiography [2] | in vitro methylation with radiolabeled SAM [3] | in vitro methylation with radiolabeled SAM; MALDI-TOF [4] | in vitro methylation with radiolabeled SAM; MALDI-TOF [5] | in vitro methylation with radiolabeled SAM, autoradiography (recombinant GST-IκBα) | in vitro methylation with radiolabeled SAM, autoradiography [6] | in vitro methylation with radiolabeled SAM, autoradiography [7] | MALDI-TOF mass shift after methylation reaction [2] | radioactive in vitro methylation of short Tat peptides [2] | in vitro methylation with radiolabeled SAM; MALDI-TOF [8]
1 | B1 | Acetylation by p300 occurred regardless of the methylation status of K51 | Acetylation by p300 occurred regardless of the methylation status of K51 | – | – | – | – | – | – | – | – | –
2 | B2 | – | – | Methylation by Set9 was abrogated when K51 or both lysines were mutated | Methylation by Set9 was abrogated when K51 or both lysines were mutated | mutation of K50 alone had no effect | methylation by Set9 was not observed with another recombinant protein, GST-IκBα | Set9 also methylated purified histones, predominantly histone H3, a known substrate of Set9 | The Tat protein was methylated in response to increasing amounts of Set9 enzyme | a shift of 14 Da was detected in the methylated ARM peptide, corresponding to the addition of a single methyl group | Methylation was observed with one peptide (45-58 amino acids) corresponding to the arginine-rich motif (ARM) of Tat | No methylation signal was observed

From patent publication US20110318377
